Experimental findings from patent US20210115143A1 are described below.

A word on the EC50: it is the concentration that produces a half-maximal response. A higher EC50 goes with lower potency in that assay. As usually defined, the Kd is a measure of binding affinity in units of concentration.

Assay [1] deals with C1q (Sigma, Cat #C1740) (UniProt P02745). The assay can be described thus: ELISA: antibody coated at 0-25 µg/mL, C1q at 2 µg/mL, anti-C1q-HRP. For orientation: An ELISA detects its analyte on a solid surface through an enzyme-linked reagent.
For assay [2], the target named is CD32a receptor (Fc gamma receptor) (UniProt P12318). Put plainly: method not stated.
Assay [3] has as its target CD16a receptor (Fc gamma receptor) (UniProt P08637). The assay can be described thus: method not stated.
The target of assay [4] is PD-L1-Fc, human IgG Fc fusion protein, human recombinant, HEK293-derived, Phe19-Thr239 (R&D systems Cat #156-B7-100) (human) (UniProt Q9NZQ7). The assay can be described thus: SPR (Reichert), PD-L1-Fc immobilized, antibody in solution, 1:1 model, 25 C.
Assay [5] has as its target PD-L1-His tagged, human recombinant, HEK293-derived, Phe19-Thr239 (R&D systems Cat #9049-B7-100) (human) (UniProt Q9NZQ7). The assay can be described thus: SPR (Reichert), antibody immobilized directly, PD-L1-His in solution, 1:1 model, 25 C.
For assay [6] the target is unchanged. The assay can be described thus: SPR, captured antibody, PD-L1-His in solution.
For assay [7] the target is unchanged. The assay can be described thus: SPR (Reichert), antibody captured by immobilized anti-human IgG, PD-L1-His in solution, 1:1 model, 25 C.
The target of assay [8] is human PD-L1 on primary human cells in the dendritic cell / CD4+ T cell mixed lymphocyte reaction (human) (UniProt Q9NZQ7). Put plainly: cell-based or functional assay.
human PD-L1 on primary human cells in the dendritic cell / CD4+ T cell mixed lymphocyte reaction (human), sequence (Q9NZQ7 19-290): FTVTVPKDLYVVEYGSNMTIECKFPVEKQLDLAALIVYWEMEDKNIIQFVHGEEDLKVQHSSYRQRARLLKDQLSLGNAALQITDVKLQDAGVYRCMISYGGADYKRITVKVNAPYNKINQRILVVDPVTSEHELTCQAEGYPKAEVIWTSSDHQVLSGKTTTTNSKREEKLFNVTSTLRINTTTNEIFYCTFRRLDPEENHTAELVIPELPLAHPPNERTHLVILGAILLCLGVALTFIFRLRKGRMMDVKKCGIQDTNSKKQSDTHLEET

PD-L1-His tagged, human recombinant, HEK293-derived, Phe19-Thr239 (R&D systems Cat #9049-B7-100) (human), sequence (Q9NZQ7 19-239 limits assumed): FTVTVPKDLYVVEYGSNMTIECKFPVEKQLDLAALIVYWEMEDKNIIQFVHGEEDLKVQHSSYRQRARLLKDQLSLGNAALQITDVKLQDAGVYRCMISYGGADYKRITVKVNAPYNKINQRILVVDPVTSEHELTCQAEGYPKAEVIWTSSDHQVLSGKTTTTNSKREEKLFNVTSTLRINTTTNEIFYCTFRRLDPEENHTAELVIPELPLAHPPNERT
CD32a receptor (Fc gamma receptor), sequence (P12318 36-218): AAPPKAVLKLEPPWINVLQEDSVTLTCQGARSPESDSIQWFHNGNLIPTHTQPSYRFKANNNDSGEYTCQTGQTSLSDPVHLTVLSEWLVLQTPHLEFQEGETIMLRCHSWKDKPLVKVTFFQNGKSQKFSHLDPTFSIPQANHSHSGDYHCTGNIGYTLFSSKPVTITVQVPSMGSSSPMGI
C1q (Sigma, Cat #C1740), sequence (P02745 23-245 limits assumed, chain 1 of 3): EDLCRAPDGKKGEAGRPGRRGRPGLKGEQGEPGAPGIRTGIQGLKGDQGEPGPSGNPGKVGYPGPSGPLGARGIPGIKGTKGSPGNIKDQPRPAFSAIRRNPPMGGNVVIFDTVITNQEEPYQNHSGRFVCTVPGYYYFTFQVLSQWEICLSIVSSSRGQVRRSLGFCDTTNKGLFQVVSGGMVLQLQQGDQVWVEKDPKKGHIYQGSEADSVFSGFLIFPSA
C1q (Sigma, Cat #C1740), sequence (P02746 28-253 limits assumed, chain 2 of 3, further chain): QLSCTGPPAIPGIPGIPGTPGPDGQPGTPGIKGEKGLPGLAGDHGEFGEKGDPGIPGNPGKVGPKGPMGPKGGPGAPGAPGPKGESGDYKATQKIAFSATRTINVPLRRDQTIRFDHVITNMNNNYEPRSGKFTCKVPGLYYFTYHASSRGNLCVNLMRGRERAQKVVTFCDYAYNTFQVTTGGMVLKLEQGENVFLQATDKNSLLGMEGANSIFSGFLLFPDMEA
C1q (Sigma, Cat #C1740), sequence (P02747 29-245 limits assumed, chain 3 of 3, further chain): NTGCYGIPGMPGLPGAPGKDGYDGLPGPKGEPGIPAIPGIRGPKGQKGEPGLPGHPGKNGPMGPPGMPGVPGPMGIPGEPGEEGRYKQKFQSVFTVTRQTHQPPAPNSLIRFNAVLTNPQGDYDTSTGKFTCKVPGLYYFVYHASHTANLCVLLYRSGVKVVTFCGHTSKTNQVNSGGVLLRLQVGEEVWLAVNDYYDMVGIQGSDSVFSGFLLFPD
PD-L1-Fc, human IgG Fc fusion protein, human recombinant, HEK293-derived, Phe19-Thr239 (R&D systems Cat #156-B7-100) (human), sequence (Q9NZQ7 19-239 limits assumed): as the sequence (Q9NZQ7 19-239 limits assumed) above
CD16a receptor (Fc gamma receptor), sequence (P08637 17-208 limits assumed): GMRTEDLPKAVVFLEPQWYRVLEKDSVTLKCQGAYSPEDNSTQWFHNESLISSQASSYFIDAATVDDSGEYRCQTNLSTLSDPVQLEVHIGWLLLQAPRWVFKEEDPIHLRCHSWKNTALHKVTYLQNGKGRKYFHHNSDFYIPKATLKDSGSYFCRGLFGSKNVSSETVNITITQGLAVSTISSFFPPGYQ

In turn, “atezolizumab (Tecentriq), Genentech Inc, Lot 3109904 (antibody)” yielded an EC50 in assay [1] of 14.9 µg/mL. The Kd turned out to be 41 µM in assay [2]; 16 µM in assay [3]; 0.00026 µM in assay [4]; 0.00062 µM in assay [5]; 0.00067 µM in assay [7]. Further, the binding affinity against that of B60-55-1 (log) in assay [6] amounted to 2 log. Also, the EC50 of IL-2 secretion in mixed lymphocyte reaction (MLR) in assay [8] came to 0.0215 µM.
